From PMC8808176 (The Journal of Biological Chemistry, 2021)

Biological target: the molecule itself
Experiment: cryo-EM structure

B1: full-length mouse TRPML2 (mmTRPML2) with N-terminal maltose-binding protein (natural protein, UniProt Q8K595-1 1-566, looked up)
chain: MPGDEETLDLPAWNRVPDLTWGPHHRSAMASLDSEVREECLREDLKFYFMSPCEKYRARRQIPWKLGLQILKIVMVTTQLVRFGLSNQLVVAFKEDNTVAFKHLFLKGFSGVDEDDYSCSIYTQENTYESIFFAIKQYRHLKNISLATLGYGESEDNRTGLKVCKQHYKTGAMFSSNETLNIDSDIETDCIHLDLQVLTTEPEDWAQTSFFRLDFYRLVQVDISFALKGIDLQAVHSREIPDCYLFQNTITFDNTAHSGKIKIYLNSEANIEECKNMNISGSTQRSTHYLLVFDVFVIMICLASLILCTRSIVLALRLRKRFLNFFLEKYKQRVCGADQWEFVNGWYVLVTISDLMTIIGSILKMEIKAKKLTNYDVCSILLGTSTLFVWVGVIRYLGYFQTYNVLILTMQASLPKVLRFCACAGMIYLGYTFCGWIVLGPYHEKFENLNIVAECLFSLVNGDDMFATFAQIQQKSILVWLFSRLYLYSFISLFIYMVLSLFIALITDSYHTIKKYQQHGFPETDLQKFLKESGSKDGYQKQPSALLSCLCCLRRRRSNDHLILID
stoichiometry N: 4
